Data as given in article PMC2814540.

Biological target: Human EGFR JM-kinase construct (JM-A and JM-B, residues 645-998) (human)
Test: static light scattering

Q: With “Human EGFR JM-kinase construct (JM-A and JM-B, residues 645-998) (domain or fragment)” as the substance, how does the stoichiometry N read?
A: The stoichiometry N was 2.
